{"source": "the RNAGym collection of RNA variant scans (doi:10.7554/elife.80360)", "parents": {"B1": {"name": "CPEB3 Ribozyme (parent)", "chain": "GGGGGCCACAGCAGAAGCGUUCACGUCGCGGCCCCUGUCAGAUUCUGGUGAAUCUGCGAAUUCUGCUGU"}}}
{"variants_of": "B1", "test": "self-cleavage, relative activity (ratio to wild type); higher = more cleavage; co-transcriptional"}
{"variant": "U26C C63G", "self-cleavage": 0.599}
{"variant": "U26C C63U", "self-cleavage": 1}
{"variant": "U26C C66A", "self-cleavage": 0.585}
{"variant": "U26C C66G", "self-cleavage": 0.692}
{"variant": "U26C G28A", "self-cleavage": 0.108}
{"variant": "U26C G28U", "self-cleavage": 0.139}
{"variant": "U26C G30A", "self-cleavage": 0.749}
{"variant": "U26C G30U", "self-cleavage": 0.304}
{"variant": "U26C G31A", "self-cleavage": 0.838}
{"variant": "U26C G31C", "self-cleavage": 0.193}
{"variant": "U26C G31U", "self-cleavage": 0.658}
{"variant": "U26C G37A", "self-cleavage": 0.317}
{"variant": "U26C G37U", "self-cleavage": 0.205}
{"variant": "U26C G41A", "self-cleavage": 0.673}
{"variant": "U26C G41C", "self-cleavage": 0.708}
{"variant": "U26C G41U", "self-cleavage": 0.8}
{"variant": "U26C G47A", "self-cleavage": 0.957}
{"variant": "U26C G47C", "self-cleavage": 0.978}
{"variant": "U26C G47U", "self-cleavage": 1.01}
{"variant": "U26C G48A", "self-cleavage": 0.982}
{"variant": "U26C G48C", "self-cleavage": 0.988}
{"variant": "U26C G50C", "self-cleavage": 1}
{"variant": "U26C G50U", "self-cleavage": 0.956}
{"variant": "U26C G56C", "self-cleavage": 0.634}
{"variant": "U26C G56U", "self-cleavage": 0.854}
{"variant": "U26C G58A", "self-cleavage": 0.937}
{"variant": "U26C G58C", "self-cleavage": 0.963}
{"variant": "U26C G58U", "self-cleavage": 0.993}
{"variant": "U26C G65A", "self-cleavage": 0.713}
{"variant": "U26C G65C", "self-cleavage": 0.547}
{"variant": "U26C G68A", "self-cleavage": 1.03}
{"variant": "U26C G68U", "self-cleavage": 1.01}
{"variant": "U26C U36A", "self-cleavage": 0.153}
{"variant": "U26C U36C", "self-cleavage": 0.88}
{"variant": "U26C U38A", "self-cleavage": 0.837}
{"variant": "U26C U38C", "self-cleavage": 0.925}
{"variant": "U26C U38G", "self-cleavage": 0.188}
{"variant": "U26C U43G", "self-cleavage": 0.735}
{"variant": "U26C U44A", "self-cleavage": 0.953}
{"variant": "U26C U44C", "self-cleavage": 0.941}
{"variant": "U26C U44G", "self-cleavage": 1.02}
{"variant": "U26C U46A", "self-cleavage": 1.02}
{"variant": "U26C U46C", "self-cleavage": 0.95}
{"variant": "U26C U46G", "self-cleavage": 0.893}
{"variant": "U26C U49C", "self-cleavage": 0.932}
{"variant": "U26C U49G", "self-cleavage": 1.01}
{"variant": "U26C U53C", "self-cleavage": 0.882}
{"variant": "U26C U55A", "self-cleavage": 0.821}
{"variant": "U26C U55C", "self-cleavage": 0.833}
{"variant": "U26C U61A", "self-cleavage": 0.874}
{"variant": "U26C U61C", "self-cleavage": 0.617}
{"variant": "U26C U61G", "self-cleavage": 0.693}
{"variant": "U26C U62A", "self-cleavage": 0.832}
{"variant": "U26C U62C", "self-cleavage": 0.732}
{"variant": "U26C U64A", "self-cleavage": 0.768}
{"variant": "U26C U64C", "self-cleavage": 0.688}
{"variant": "U26C U64G", "self-cleavage": 0.752}
{"variant": "U26C U67A", "self-cleavage": 1.01}
{"variant": "U26C U67C", "self-cleavage": 0.968}
{"variant": "U26C U67G", "self-cleavage": 0.945}
{"variant": "U26C U69A", "self-cleavage": 1.01}
{"variant": "U26C U69C", "self-cleavage": 1.06}
{"variant": "U26G", "self-cleavage": 0.924}
{"variant": "U26G A40C", "self-cleavage": 0.395}
{"variant": "U26G A40G", "self-cleavage": 0.75}
{"variant": "U26G A40U", "self-cleavage": 0.602}
{"variant": "U26G A42C", "self-cleavage": 0.86}
{"variant": "U26G A42U", "self-cleavage": 0.828}
{"variant": "U26G A51C", "self-cleavage": 0.838}
{"variant": "U26G A51G", "self-cleavage": 0.787}
{"variant": "U26G A51U", "self-cleavage": 0.871}
{"variant": "U26G A52C", "self-cleavage": 0.912}
{"variant": "U26G A52G", "self-cleavage": 0.914}
{"variant": "U26G A52U", "self-cleavage": 0.868}
{"variant": "U26G A59C", "self-cleavage": 0.36}
{"variant": "U26G A59G", "self-cleavage": 0.959}
{"variant": "U26G A60U", "self-cleavage": 0.393}
{"variant": "U26G C27G", "self-cleavage": 0.34}
{"variant": "U26G C27U", "self-cleavage": 0.605}
{"variant": "U26G C29G", "self-cleavage": 0.414}
{"variant": "U26G C29U", "self-cleavage": 0.318}
{"variant": "U26G C32A", "self-cleavage": 0.552}
{"variant": "U26G C32G", "self-cleavage": 0.234}
{"variant": "U26G C33A", "self-cleavage": 0.827}
{"variant": "U26G C33G", "self-cleavage": 0.437}
{"variant": "U26G C33U", "self-cleavage": 0.833}
{"variant": "U26G C34G", "self-cleavage": 0.409}
{"variant": "U26G C34U", "self-cleavage": 0.95}
{"variant": "U26G C35A", "self-cleavage": 0.184}
{"variant": "U26G C35G", "self-cleavage": 0.241}
{"variant": "U26G C39A", "self-cleavage": 0.406}
{"variant": "U26G C39G", "self-cleavage": 0.756}
{"variant": "U26G C39U", "self-cleavage": 0.731}
{"variant": "U26G C45A", "self-cleavage": 0.951}
{"variant": "U26G C45G", "self-cleavage": 0.87}
{"variant": "U26G C54A", "self-cleavage": 0.708}
{"variant": "U26G C54G", "self-cleavage": 0.694}
{"variant": "U26G C54U", "self-cleavage": 0.931}
{"variant": "U26G C57A", "self-cleavage": 0.339}
{"variant": "U26G C57G", "self-cleavage": 0.172}
{"variant": "U26G C63A", "self-cleavage": 0.581}
{"variant": "U26G C63U", "self-cleavage": 0.893}
{"variant": "U26G C66G", "self-cleavage": 0.693}
{"variant": "U26G G28C", "self-cleavage": 0.133}
{"variant": "U26G G30C", "self-cleavage": 0.284}
{"variant": "U26G G30U", "self-cleavage": 0.164}
{"variant": "U26G G31A", "self-cleavage": 0.555}
{"variant": "U26G G37A", "self-cleavage": 0.21}
{"variant": "U26G G37U", "self-cleavage": 0.185}
{"variant": "U26G G41A", "self-cleavage": 0.539}
{"variant": "U26G G41C", "self-cleavage": 0.561}
{"variant": "U26G G47C", "self-cleavage": 0.965}
{"variant": "U26G G48U", "self-cleavage": 0.923}
{"variant": "U26G G50A", "self-cleavage": 0.927}
{"variant": "U26G G50C", "self-cleavage": 0.962}
{"variant": "U26G G50U", "self-cleavage": 0.928}
{"variant": "U26G G56A", "self-cleavage": 0.729}
{"variant": "U26G G56C", "self-cleavage": 0.356}
{"variant": "U26G G56U", "self-cleavage": 0.814}
{"variant": "U26G G58A", "self-cleavage": 0.557}
{"variant": "U26G G58U", "self-cleavage": 0.87}
{"variant": "U26G G65A", "self-cleavage": 0.643}
{"variant": "U26G G65C", "self-cleavage": 0.646}
{"variant": "U26G G68A", "self-cleavage": 1.01}
{"variant": "U26G G68C", "self-cleavage": 0.932}
{"variant": "U26G G68U", "self-cleavage": 0.968}
{"variant": "U26G U36C", "self-cleavage": 0.42}
{"variant": "U26G U36G", "self-cleavage": 0.198}
{"variant": "U26G U38A", "self-cleavage": 0.375}
{"variant": "U26G U38C", "self-cleavage": 0.664}
{"variant": "U26G U38G", "self-cleavage": 0.171}
{"variant": "U26G U43A", "self-cleavage": 0.766}
{"variant": "U26G U43C", "self-cleavage": 0.863}
{"variant": "U26G U43G", "self-cleavage": 0.801}
{"variant": "U26G U44A", "self-cleavage": 0.925}
{"variant": "U26G U44C", "self-cleavage": 0.866}
{"variant": "U26G U44G", "self-cleavage": 0.811}
{"variant": "U26G U46A", "self-cleavage": 0.854}
{"variant": "U26G U46C", "self-cleavage": 0.86}
{"variant": "U26G U46G", "self-cleavage": 0.86}
{"variant": "U26G U49C", "self-cleavage": 0.924}
{"variant": "U26G U49G", "self-cleavage": 0.907}
{"variant": "U26G U53A", "self-cleavage": 0.782}
{"variant": "U26G U53C", "self-cleavage": 0.768}
{"variant": "U26G U53G", "self-cleavage": 0.778}
{"variant": "U26G U55G", "self-cleavage": 0.404}
{"variant": "U26G U61G", "self-cleavage": 0.558}
{"variant": "U26G U62C", "self-cleavage": 0.674}
{"variant": "U26G U64A", "self-cleavage": 0.692}
{"variant": "U26G U64C", "self-cleavage": 0.756}
{"variant": "U26G U67A", "self-cleavage": 0.854}
{"variant": "U26G U67C", "self-cleavage": 0.91}
{"variant": "U26G U67G", "self-cleavage": 0.968}
{"variant": "U26G U69A", "self-cleavage": 1}
{"variant": "U26G U69C", "self-cleavage": 1.04}
{"variant": "U26G U69G", "self-cleavage": 1}
{"variant": "C27A", "self-cleavage": 0.711}
{"variant": "C27A A40C", "self-cleavage": 0.256}
{"variant": "C27A A40G", "self-cleavage": 0.452}
{"variant": "C27A A40U", "self-cleavage": 0.304}
{"variant": "C27A A42C", "self-cleavage": 0.286}
{"variant": "C27A A42G", "self-cleavage": 0.419}
{"variant": "C27A A42U", "self-cleavage": 0.379}
{"variant": "C27A A51U", "self-cleavage": 0.577}
{"variant": "C27A A52C", "self-cleavage": 0.556}
{"variant": "C27A A59C", "self-cleavage": 0.247}
{"variant": "C27A A59U", "self-cleavage": 0.245}
